Each block holds one binder with its values, some of them ahead of it.
Key:
[1] = target: GST-tagged mouse Cavin1 HR1 domain (Mus musculus, UniProt O54724); test: pull-down
[2] = target: mouse Cavin1 HR1 domain (His-Ub construct) (Mus musculus (Mouse)., UniProt O54724); test: ITC
[3] = target: mouse Cavin1 HR1 N-terminal fragment mC1-HR1(45-103) (Mus musculus, UniProt O54724); test: ITC
[4] = target: His-MBP full-length mouse Cavin1 (Mus musculus (Mouse)., UniProt O54724); test: ITC
[5] = target: zebrafish Cavin4a HR1 domain (Danio rerio, UniProt A1L260); test: ITC
Sequence of zebrafish Cavin4a HR1 domain (A1L260 whole entry, looked up, the tested form may be a part): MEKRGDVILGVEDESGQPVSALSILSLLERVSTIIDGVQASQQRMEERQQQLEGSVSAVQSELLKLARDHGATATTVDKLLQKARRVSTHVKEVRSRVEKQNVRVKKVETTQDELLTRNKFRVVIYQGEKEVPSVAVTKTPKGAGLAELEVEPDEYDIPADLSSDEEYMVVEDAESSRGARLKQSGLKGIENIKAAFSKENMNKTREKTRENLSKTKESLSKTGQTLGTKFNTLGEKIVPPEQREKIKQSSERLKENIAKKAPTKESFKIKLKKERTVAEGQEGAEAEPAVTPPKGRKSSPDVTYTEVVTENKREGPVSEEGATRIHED

[6] = target: zebrafish Cavin4b HR1 domain (Danio rerio, UniProt A0A8M1N3J3); test: ITC
endogenous CAV1 (HeLa) = endogenous CAV1 (HeLa) (Homo sapiens (HeLa), UniProt Q03135); test: co-IP
Sequence of endogenous CAV1 (HeLa) (Q03135 whole entry): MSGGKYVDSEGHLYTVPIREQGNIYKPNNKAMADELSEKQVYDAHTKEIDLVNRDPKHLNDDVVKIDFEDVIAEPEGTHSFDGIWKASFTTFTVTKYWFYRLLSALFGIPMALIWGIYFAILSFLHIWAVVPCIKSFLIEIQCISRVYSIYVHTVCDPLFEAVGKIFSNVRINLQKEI

endogenous Cavin1 (HeLa) = endogenous Cavin1 (HeLa) (Homo sapiens (HeLa), UniProt Q6NZI2); test: co-IP
Sequence of endogenous Cavin1 (HeLa) (Q6NZI2 whole entry): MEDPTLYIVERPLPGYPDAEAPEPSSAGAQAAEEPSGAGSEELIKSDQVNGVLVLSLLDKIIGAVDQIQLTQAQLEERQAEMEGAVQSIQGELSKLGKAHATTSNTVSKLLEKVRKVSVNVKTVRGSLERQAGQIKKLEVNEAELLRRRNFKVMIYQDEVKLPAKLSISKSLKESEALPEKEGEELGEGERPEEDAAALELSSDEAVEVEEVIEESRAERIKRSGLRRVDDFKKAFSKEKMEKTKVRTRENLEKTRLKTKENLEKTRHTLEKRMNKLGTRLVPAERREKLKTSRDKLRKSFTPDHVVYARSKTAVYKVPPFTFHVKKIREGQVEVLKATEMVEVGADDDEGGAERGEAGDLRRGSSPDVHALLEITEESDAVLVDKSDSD

crystal structure = target: the molecule itself; test: crystal structure

Sequence of His-MBP full-length mouse Cavin1 (O54724 whole entry, the tested form may be a part): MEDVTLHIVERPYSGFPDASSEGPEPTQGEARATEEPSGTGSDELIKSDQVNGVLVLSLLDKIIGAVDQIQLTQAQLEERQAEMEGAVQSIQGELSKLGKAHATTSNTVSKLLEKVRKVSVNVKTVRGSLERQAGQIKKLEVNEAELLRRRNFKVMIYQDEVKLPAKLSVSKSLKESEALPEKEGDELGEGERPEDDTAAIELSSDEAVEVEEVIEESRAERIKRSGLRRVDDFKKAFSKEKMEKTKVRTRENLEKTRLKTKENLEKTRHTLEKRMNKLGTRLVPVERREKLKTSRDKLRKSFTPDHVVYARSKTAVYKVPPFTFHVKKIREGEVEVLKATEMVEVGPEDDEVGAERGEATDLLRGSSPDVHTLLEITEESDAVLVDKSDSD

B1: nanobody NbA12 (VHH)
VHH: QVQLQESGGGLVQAGGSLRLSCAASGFTFDDYAIGWFRQAPGKEREGVSCITSSDGSTYYADSVKGRFTISSDNAKNTVYLQMNSLKPEDTAVYYCAAESWPPLCHYSGMDYWGKGTQVTVSS
binding result [1]: binds
binding result [2]: binds
binding result [3]: binds
binding result [4]: binds
binding result [5]: no binding
binding result [6]: no binding

B4: mouse Cavin1 HR1 domain (as crystallised with NbB7) (domain or fragment, UniProt O54724 45-155, looked up)
chain: LIKSDQVNGVLVLSLLDKIIGAVDQIQLTQAQLEERQAEMEGAVQSIQGELSKLGKAHATTSNTVSKLLEKVRKVSVNVKTVRGSLERQAGQIKKLEVNEAELLRRRNFKV
stoichiometry N (crystal structure): 3

Second part, the binder after the results:

binding result (endogenous CAV1 (HeLa)): binds
binding result (endogenous Cavin1 (HeLa)): binds
B2: NbB7-GFP (VHH)
VHH: QVQLQESGGGLVQAGGSLRLSCAVSGIRVNVNAMYWYRQAPGKQRELVAIITTFGSTNYADSAKGRFTISRDNTKNTVYLQMDNLKPEDTAVYYCNAPQFTDRYWGQGTQVTVSS

Kd [2]: 520 nM
binding result [6]: no binding
B3: nanobody NbB7 (VHH)
VHH: B2 VHH
